Measurements as given in patent US10562935B2, “Stapled peptides and uses thereof” (London Health Sciences Centre Research Inc., priority 2015, dated 2020).
Bridges are numbered along the chain shown (N, C = ends).

Tests used:
[1] = Circular dichroism (CD) spectroscopy of linear and stapled peptides in water or 40% TFE/water (Example 3); format: physicochemical; settings: for [0]208 mean residue ellipticity: λ = 208 nm; for [0]222 mean residue ellipticity: λ = 222 nm
Outline: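 Spectra 180–260 nm at 20 °C, 0.5 mM N-acetylated, C-amidated peptides in 0.1M phosphate buffer (water) or 40% TFE/water, 1 mm path, five scans averaged, buffer baseline subtracted. Mean residue ellipticity reported at 222 and 208 nm with the 222/208 ratio as helicity index.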

[2] = Direct HA-binding ELISA of biotinylated peptides on HA coated plates (Example 4); set-up: key to HA binding: absorbance (color) read at 450 nm; settings: for HA binding: as repeated in tables 16, 18, 20; for HA direct binding (OD): optical density, summary tables 15, 17, 19
Outline: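 N-terminally biotinylated peptides (AEEA spacer) added to HA-coated wells at 0.8 or 0.08 μM, n=3, overnight at 4° C with shaking; biotin-labeled 7 kDa RHAMM as positive control. Bound peptide detected with streptavidin-HRP (1 hr, room temperature) and TMB substrate (5-10 min), absorbance at 450 nm.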

[3] = test system: RHAMM-overexpressing (LR21) cells; test: Cell migration assay (Boyden chamber, Chemicon ECM510); format: cell-based; settings: for inhibition of cell migration (in words): 10 ng/mL peptide, 20 hours, compared to 30% serum control; for Migration (% inhib.): % inhibition relative to positive control
Outline: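 Serum-starved LR21 cells (7.5×10^4) placed in the upper Boyden chamber with or without 10 ng/mL peptide, with 30% FBS in DMEM as lower-chamber chemoattractant. Cells crossing the membrane after 20 h quantified by CyQUANT GR fluorescence (480/520 nm); mean of n=3, compared with 30% serum control.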

[4] = test system: IMR90 human fetal lung fibroblasts; test: Fibrosis assay: active TGF-β levels in TGF-β treated fibroblasts (ELISA); format: cell-based; settings: % inhibition relative to positive control
Description: Compounds 132, 133, 135, 150, 152, 157-161, 265-269, 275, 277, and 278 were evaluated for their ability to inhibit fibrosis. IMR90 human fetal lung fibroblasts were obtained from ATCC and maintained in DMEM supplemented with 10% fetal bovine serum. In order to examine the effect of peptides on myofibroblast differentiation, 80% confluent cultures were serum starved overnight prior to addition of TGF-β (2 ng/mL, R&D Systems). Cells were treated with TGF-β for 24 hours prior to addition of peptides (10 ng/mL). 48 hours after addition of peptides, culture supernatants were collected and levels of active TGF-β measured using commercially available TGF-β ELISA (Quantikine, R&D Systems).
Values are the Mean and SDM n=3 replicates. *p<0.05, **p<0.01, ***p<0.001 when compared to the +TGFβ1 control. In FIG. 47, where bars are labeled with two compound numbers (“133/150” and “135/152”) this means that the data were pooled for the indicated compounds, i.e., for the non-acetylated and acetylated versions of the indicated peptides.

[5] = [θ]222/[θ]208 ratio in water, summary tables 15, 17, 19
[6] = as repeated in tables 16, 18, 20

Ac-(cyclo-5,9)-NLKQ[EIKHK]VKLKDE-NH2 (Ac-NLKQEIKHKVKLKDE-NH2; lactam 5-9; SMILES CC[C@H](C)[C@@H]1NC(=O)[C@@H](NC(=O)[C@H](CCC(N)=O)NC(=O)[C@H](CCCCN)NC(=O)[C@H](CC(C)C)NC(=O)[C@H](CC(N)=O)NC(C)=O)CCC(=O)NCCCC[C@@H](C(=O)N[C@H](C(=O)N[C@@H](CCCCN)C(=O)N[C@@H](CC(C)C)C(=O)N[C@@H](CCCCN)C(=O)N[C@@H](CC(=O)O)C(=O)N[C@@H](CCC(=O)O)C(N)=O)C(C)C)NC(=O)[C@H](Cc2c[nH]cn2)NC(=O)[C@H](CCCCN)NC1=O) [Compound 158]
[θ]222/[θ]208 ratio of ellipticities [1, 5]: 0.43 | [θ]222/[θ]208 ratio of ellipticities [1, 6]: 0.43 | [0]222/[0]208 ratio of ellipticities ([1]; in 40% TFE/water): 0.84 | [0]222/[0]208 ratio of ellipticities ([1]; in water): 0.43 | [0]208 mean residue ellipticity ([1]; in 40% TFE/water): -1.70E+04 deg cm^2 dmol^−1 | [0]208 mean residue ellipticity ([1]; in water): -6.60E+03 deg cm^2 dmol^−1 | [0]222 mean residue ellipticity ([1]; in 40% TFE/water): -1.24E+04 deg cm^2 dmol^−1 | [0]222 mean residue ellipticity ([1]; in water): -2.83E+03 deg cm^2 dmol^−1 | HA binding [2]: 0.005 | HA direct binding (OD) [2]: 0.005 OD | inhibition of cell migration (in words) [3]: significantly inhibit cell migration | Migration (% inhib.) [3]: 43 % inhib. | Fibrosis (% inhib.) [4]: 31 % inhib.

Ac-(cyclo-10-14, cyclo-15-19)-KIKHVVKLK[EENSK][KKSEE]SKLRSQLVKRK-NH2 (Ac-KIKHVVKLKEENSKKKSEESKLRSQLVKRK-NH2; lactam 10-14, 15-19; SMILES CC[C@H](C)[C@H](NC(=O)[C@H](CCCCN)NC(C)=O)C(=O)N[C@@H](CCCCN)C(=O)N[C@@H](Cc1c[nH]cn1)C(=O)N[C@H](C(=O)N[C@H](C(=O)N[C@@H](CCCCN)C(=O)N[C@@H](CC(C)C)C(=O)N[C@@H](CCCCN)C(=O)N[C@H]1CCC(=O)NCCCC[C@@H](C(=O)N[C@H]2CCCCNC(=O)CC[C@@H](C(=O)N[C@@H](CO)C(=O)N[C@@H](CCCCN)C(=O)N[C@@H](CC(C)C)C(=O)N[C@@H](CCCNC(=N)N)C(=O)N[C@@H](CO)C(=O)N[C@@H](CCC(N)=O)C(=O)N[C@@H](CC(C)C)C(=O)N[C@H](C(=O)N[C@@H](CCCCN)C(=O)N[C@@H](CCCNC(=N)N)C(=O)N[C@@H](CCCCN)C(N)=O)C(C)C)NC(=O)[C@H](CCC(=O)O)NC(=O)[C@H](CO)NC(=O)[C@H](CCCCN)NC2=O)NC(=O)[C@H](CO)NC(=O)[C@H](CC(N)=O)NC(=O)[C@H](CCC(=O)O)NC1=O)C(C)C)C(C)C) [Compound 268]
[0]208 mean residue ellipticity at λ=208 nm ([1]; 40% TFE/water): -.304E04 deg cm^2 dmol^−1 | [0]222/[0]208 ratio of ellipticities ([1]; 40% TFE/water): 0.83 | [0]222 mean residue ellipticity at λ=222 nm ([1]; 40% TFE/water): -2.54E04 deg cm^2 dmol^−1 | [θ]222/[θ]208 ratio of ellipticities [1, 5]: 0.40 | [θ]222/[θ]208 ratio of ellipticities [1, 6]: 0.40 | [0]208 mean residue ellipticity at λ=208 nm ([1]; water): -6.74E+03 deg cm^2 dmol^−1 | [0]222/[0]208 ratio of ellipticities ([1]; water): 0.40 | [0]222 mean residue ellipticity at λ=222 nm ([1]; water): -2.71E+03 deg cm^2 dmol^−1 | HA binding [2]: 0.19 | HA direct binding (OD) [2]: 0.19 OD | Migration (% inhib.) [3]: 0 % inhib. | Fibrosis (% inhib.) [4]: 0 % inhib.

Ac-(cyclo-28-32)-NLKQKIKHVVKLKDENSQLKSEVSKLR[EQLVK]RKQN-NH2 (Ac-NLKQKIKHVVKLKDENSQLKSEVSKLREQLVKRKQN-NH2; lactam 28-32; SMILES CC[C@H](C)[C@H](NC(=O)[C@H](CCCCN)NC(=O)[C@H](CCC(N)=O)NC(=O)[C@H](CCCCN)NC(=O)[C@H](CC(C)C)NC(=O)[C@H](CC(N)=O)NC(C)=O)C(=O)N[C@@H](CCCCN)C(=O)N[C@@H](Cc1c[nH]cn1)C(=O)N[C@H](C(=O)N[C@H](C(=O)N[C@@H](CCCCN)C(=O)N[C@@H](CC(C)C)C(=O)N[C@@H](CCCCN)C(=O)N[C@@H](CC(=O)O)C(=O)N[C@@H](CCC(=O)O)C(=O)N[C@@H](CC(N)=O)C(=O)N[C@@H](CO)C(=O)N[C@@H](CCC(N)=O)C(=O)N[C@@H](CC(C)C)C(=O)N[C@@H](CCCCN)C(=O)N[C@@H](CO)C(=O)N[C@@H](CCC(=O)O)C(=O)N[C@H](C(=O)N[C@@H](CO)C(=O)N[C@@H](CCCCN)C(=O)N[C@@H](CC(C)C)C(=O)N[C@@H](CCCNC(=N)N)C(=O)N[C@H]1CCC(=O)NCCCC[C@@H](C(=O)N[C@@H](CCCNC(=N)N)C(=O)N[C@@H](CCCCN)C(=O)N[C@@H](CCC(N)=O)C(=O)N[C@@H](CC(N)=O)C(N)=O)NC(=O)[C@H](C(C)C)NC(=O)[C@H](CC(C)C)NC(=O)[C@H](CCC(N)=O)NC1=O)C(C)C)C(C)C)C(C)C) [Compound 277]
[0]208 mean residue ellipticity at λ=208 nm ([1]; 40% TFE/water): -3.10E04 deg cm^2 dmol^−1 | [0]222/[0]208 ratio of ellipticities ([1]; 40% TFE/water): 0.85 | [0]222 mean residue ellipticity at λ=222 nm ([1]; 40% TFE/water): -2.65E04 deg cm^2 dmol^−1 | [θ]222/[θ]208 ratio of ellipticities [1, 5]: 0.64 | [θ]222/[θ]208 ratio of ellipticities [1, 6]: 0.64 | [0]208 mean residue ellipticity at λ=208 nm ([1]; water): -1.46E+04 deg cm^2 dmol^−1 | [0]222/[0]208 ratio of ellipticities ([1]; water): 0.64 | [0]222 mean residue ellipticity at λ=222 nm ([1]; water): -9.36E+03 deg cm^2 dmol^−1 | HA binding [2]: 0.12 | HA direct binding (OD) [2]: 0.12 OD | inhibition of cell migration (in words) [3]: significantly inhibit cell migration | Migration (% inhib.) [3]: 63 % inhib. | Fibrosis (% inhib.) [4]: 52 % inhib.

Ac-(cyclo-4,8)-VSK[ERSQK]VKRKQN-NH2 (Ac-VSKERSQKVKRKQN-NH2; lactam 4-8; SMILES CC(=O)N[C@H](C(=O)N[C@@H](CO)C(=O)N[C@@H](CCCCN)C(=O)N[C@H]1CCC(=O)NCCCC[C@@H](C(=O)N[C@H](C(=O)N[C@@H](CCCCN)C(=O)N[C@@H](CCCNC(=N)N)C(=O)N[C@@H](CCCCN)C(=O)N[C@@H](CCC(N)=O)C(=O)N[C@@H](CC(N)=O)C(N)=O)C(C)C)NC(=O)[C@H](CCC(N)=O)NC(=O)[C@H](CO)NC(=O)[C@H](CCCNC(=N)N)NC1=O)C(C)C) [Compound 150]
[θ]222/[θ]208 ratio of ellipticities [1, 5]: 0.53 | [θ]222/[θ]208 ratio of ellipticities [1, 6]: 0.53 | [0]222/[0]208 ratio of ellipticities ([1]; in 40% TFE/water): 0.81 | [0]222/[0]208 ratio of ellipticities ([1]; in water): 0.53 | alpha-helical character by CD (in words) ([1]; in water): decreased helicity | [0]208 mean residue ellipticity ([1]; in 40% TFE/water): -1.21E+04 deg cm^2 dmol^−1 | [0]208 mean residue ellipticity ([1]; in water): -6.30E+03 deg cm^2 dmol^−1 | [0]222 mean residue ellipticity ([1]; in 40% TFE/water): -9.75E+03 deg cm^2 dmol^−1 | [0]222 mean residue ellipticity ([1]; in water): -3.35E+03 deg cm^2 dmol^−1 | HA binding [2]: 0.015 | HA direct binding (OD) [2]: 0.015 OD | inhibition of cell migration (in words) [3]: significantly inhibit cell migration | Migration (% inhib.) [3]: 0 % inhib. | Fibrosis (% inhib.) [4]: 31 % inhib.

Ac-(cyclo-11-15, cyclo-16-20)-KIKHVVKLKD[ENSQK][ESEVK]KLRSQLVKRIK-NH2 [Compound 267]
[0]208 mean residue ellipticity at λ=208 nm ([1]; 40% TFE/water): -3.02E04 deg cm^2 dmol^−1 | [0]222/[0]208 ratio of ellipticities ([1]; 40% TFE/water): 0.77 | [0]222 mean residue ellipticity at λ=222 nm ([1]; 40% TFE/water): -2.34E04 deg cm^2 dmol^−1 | [θ]222/[θ]208 ratio of ellipticities [1, 5]: 0.48 | [θ]222/[θ]208 ratio of ellipticities [1, 6]: 0.48 | [0]222/[0]208 ratio of ellipticities ([1]; in water): 0.48 | [0]208 mean residue ellipticity at λ=208 nm ([1]; water): -1.29E+04 deg cm^2 dmol^−1 | [0]222/[0]208 ratio of ellipticities ([1]; water): 0.48 | [0]222 mean residue ellipticity at λ=222 nm ([1]; water): -6.14E+03 deg cm^2 dmol^−1 | HA binding [2]: 0.01 | HA direct binding (OD) [2]: 0.01 OD | Migration (% inhib.) [3]: 0 % inhib. | Fibrosis (% inhib.) [4]: 0 % inhib.
